Data reported in patent US20230101046A1, “[…] LYMPHOMA KINASE […] ANTIGEN RECEPTORS AND METHODS OF USE” (The Children's Medical Center Corporation, published 2023).
Changes are numbered by the printed parent chain.

B1: ALK Antibody #1 (antibody, V domains shown)
VH: QVQLQQSGAELVKPGASVKISCKASGYAFSSYWMNWVKQRPGKGLEWIGQIYPGDGDTNYNGKFKGKATLTADKSSSTAYMQLSSLTSEDSAVYFCASYYYGSKAYWGQGTLVTVSA
VL: DIQMTQSPASLAASVGETVTITCRASENIYYSLAWYQQKQGKSPQLLIYNANSLEDGVPSRFSGSGSGTQYSMKINSMQPEDTATYFCKQAYDVPFTFGSGTKLEIKR
B2: ALK Antibody #3 (antibody, V domains shown)
VH: QVQLQQSGAELAKPGASVKLSCKASGYTFTNYWMHWVKQRPGQGLEWIGYINPSSGYTKYNQKFKDKATLTADKSSSTAYMQLSSLTYEDSAVYYCARDYYGSSSWFAYWGQGTLVTVSA
VL: DIVMTQSQRFMSTSVGDRVSVTCKASQNVGTNVAWYQQKPGQSPKALIYSASYRYSGVPDRFTGSGSGTDFTLTVSNVQSEDLAEYFCQQYNSYPYMYTFGGGTKLEIKR
B3: ALK Antibody #7 (antibody, V domains shown)
VH: B2 VH with N31S, Y88F
VL: B2 VL with R9K, Q42H, V75I, Q90R, Y98F
B4: ALK Antibody #5 (antibody, V domains shown)
VH: B2 VH with N31S, N52K
VL: B2 VL with V75I
B5: ALK Antibody #6 (antibody, V domains shown)
VH: DVKLVESGEGLVKPGGSLKLSCAASGFTFSSYAMSWVRQTPEKRLEWVTYISSGGDYIYYADTVKGRFTISRDNARNTLYLQMSSLKSEDTAMYYCTRERIWLRRFFDVWGTGTTVTVSS
VL: DIVMTQSQKFMSTSVGDRVSITCKASQNVGTAVAWYQLKPGQSPKLLIYSASNRFTGVPDRFTGSGSGTDFTLTISNMQSEDLADYFCQQYSSYPLTFGSGTKLEIKR
B6: ALK Antibody #4 (antibody, V domains shown)
VH: QVQLQQSGAELVKPGASVKISCKASGYAFSSYWVNWVKQRPGKGLEWIGQIYPGDGDTNYNGKFKGKATLTADKSSSTAYMQLSSLTSEDSAVYFCARSRGYFYGSTYDSWGQGTTLTVSS
VL: not shown

target: human ALK receptor (human); experiment: apparent KD (KD^app), method not stated
Sequence (chain, as listed by the source): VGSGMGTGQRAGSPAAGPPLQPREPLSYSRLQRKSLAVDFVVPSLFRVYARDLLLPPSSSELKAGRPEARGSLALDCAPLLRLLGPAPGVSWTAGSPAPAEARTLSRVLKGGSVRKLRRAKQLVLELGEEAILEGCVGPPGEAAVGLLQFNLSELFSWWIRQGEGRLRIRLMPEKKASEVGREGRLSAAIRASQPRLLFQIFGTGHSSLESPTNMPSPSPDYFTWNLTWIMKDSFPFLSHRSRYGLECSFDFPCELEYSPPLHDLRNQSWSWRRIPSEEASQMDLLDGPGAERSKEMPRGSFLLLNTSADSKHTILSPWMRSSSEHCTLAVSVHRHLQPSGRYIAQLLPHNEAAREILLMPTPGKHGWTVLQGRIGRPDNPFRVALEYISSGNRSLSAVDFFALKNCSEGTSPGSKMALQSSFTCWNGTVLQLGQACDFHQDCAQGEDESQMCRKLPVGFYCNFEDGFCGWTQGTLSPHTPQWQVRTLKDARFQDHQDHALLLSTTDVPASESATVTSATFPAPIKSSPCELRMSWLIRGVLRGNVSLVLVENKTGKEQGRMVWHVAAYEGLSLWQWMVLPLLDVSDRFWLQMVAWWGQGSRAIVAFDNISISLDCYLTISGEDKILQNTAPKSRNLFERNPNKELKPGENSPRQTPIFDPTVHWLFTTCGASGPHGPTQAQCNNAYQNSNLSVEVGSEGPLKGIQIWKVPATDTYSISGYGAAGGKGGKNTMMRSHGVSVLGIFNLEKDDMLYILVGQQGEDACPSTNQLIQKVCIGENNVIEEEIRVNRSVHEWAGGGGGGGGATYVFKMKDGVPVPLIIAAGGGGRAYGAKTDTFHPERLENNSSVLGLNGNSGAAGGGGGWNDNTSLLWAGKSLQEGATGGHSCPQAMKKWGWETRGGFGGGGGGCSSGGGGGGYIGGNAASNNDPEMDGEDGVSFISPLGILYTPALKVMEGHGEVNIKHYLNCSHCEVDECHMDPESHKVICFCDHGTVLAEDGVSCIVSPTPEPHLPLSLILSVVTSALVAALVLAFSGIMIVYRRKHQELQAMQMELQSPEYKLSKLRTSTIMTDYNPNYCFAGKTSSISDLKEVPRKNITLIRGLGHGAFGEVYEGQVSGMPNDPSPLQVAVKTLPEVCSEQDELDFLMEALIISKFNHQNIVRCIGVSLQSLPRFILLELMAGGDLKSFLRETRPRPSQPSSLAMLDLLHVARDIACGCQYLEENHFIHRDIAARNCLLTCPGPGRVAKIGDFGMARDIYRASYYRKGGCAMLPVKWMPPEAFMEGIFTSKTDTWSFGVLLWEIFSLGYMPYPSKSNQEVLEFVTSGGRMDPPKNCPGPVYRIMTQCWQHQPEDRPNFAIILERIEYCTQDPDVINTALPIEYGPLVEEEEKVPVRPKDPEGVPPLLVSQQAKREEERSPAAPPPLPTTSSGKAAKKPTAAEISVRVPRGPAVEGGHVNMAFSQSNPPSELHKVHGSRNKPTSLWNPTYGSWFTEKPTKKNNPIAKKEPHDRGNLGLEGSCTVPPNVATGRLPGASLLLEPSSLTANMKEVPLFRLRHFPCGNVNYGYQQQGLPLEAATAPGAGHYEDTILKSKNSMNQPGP

| Kd | Binder |
| --- | --- |
| 0.35 nM | B1 |
| 0.5 nM | B2 |
| 0.5 nM | B3 |
| 0.5 nM | B4 |
| 0.4 nM | B5 |
| 0.5 nM | B6 |
